Reference: the RNAGym collection of RNA variant scans (doi:10.1093/molbev/msab373)

B1: Azoarcus group I ribozyme (parent)
chain: GUGCCUUGCGCCGGGAAACCACGCAAGGGAUGGUGUCAAAUUCGGCGAAACCUAAGCGCCCGCCCGGGCGUAUGGCAACGCCGAGCCAAGCUUCGGCGCCUGCGCCGAUGAAGGUGUAGAGACUAGACGGCACCCACCUAAGGCAAACGCUAUGGUGAAGGCAUAGUCCAGGGAGUGGCGAAAGUCACACAAACCGG

Variants of: B1
Test: reverse-splicing fitness (ratio to wild type); higher = more active; in vitro selection; Mg2+ level not given
Method in brief: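 An in vitro group I ribozyme library with randomized positions was T7-transcribed and gel-purified. In triplicate, 10 pmol RNA in EPPS pH 7.5 was reacted with 50 pmoles of a 30-nt RNA substrate for 1 h at 37 °C across several added MgCl2 levels (1–48 mM), then stopped with EDTA. Products were reverse transcribed from a substrate-complementary primer, PCR-amplified and sequenced (HiSeq 4000). Fitness is a variant's read proportion after selection over that before, normalised to wild type.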

Row | Variant | reverse-splicing fitness
1 | C82G A120G A145G C150A C169G | 0.0133
2 | C82G A120G A145G C150A C169G U176A | 0.0188
3 | C82G A120G A145G C150A C169G U176C | 0.0296
4 | C82G A120G A145G C150A C169G U176G | 0.00507
5 | C82G A120G A145G C150A C169U | 0.011
6 | C82G A120G A145G C150A C169U U176A | 0.021
7 | C82G A120G A145G C150A C169U U176C | 0.0168
8 | C82G A120G A145G C150A C169U U176G | 0.00581
9 | C82G A120G A145G C150A U176A | 0.011
10 | C82G A120G A145G C150A U176C | 0.0209
11 | C82G A120G A145G C150A U176G | 0.00757
12 | C82G A120G A145G C150G | 0.00886
13 | C82G A120G A145G C150G C169A | 0.0111
14 | C82G A120G A145G C150G C169A U176A | 0.013
15 | C82G A120G A145G C150G C169A U176C | 0.013
16 | C82G A120G A145G C150G C169A U176G | 0.0077
17 | C82G A120G A145G C150G C169G | 0.0108
18 | C82G A120G A145G C150G C169G U176A | 0.0108
19 | C82G A120G A145G C150G C169G U176C | 0.0129
20 | C82G A120G A145G C150G C169G U176G | 0.00567
21 | C82G A120G A145G C150G C169U | 0.0109

Row | Variant | reverse-splicing fitness
22 | C82G A120G A145G C150G C169U U176A | 0.0131
23 | C82G A120G A145G C150G C169U U176C | 0.0139
24 | C82G A120G A145G C150G C169U U176G | 0.00717
25 | C82G A120G A145G C150G U176A | 0.00691
26 | C82G A120G A145G C150G U176C | 0.011
27 | C82G A120G A145G C150G U176G | 0.00614
28 | C82G A120G A145G C150U | 0.0247
29 | C82G A120G A145G C150U C169A | 0.0266
30 | C82G A120G A145G C150U C169A U176A | 0.0171
31 | C82G A120G A145G C150U C169A U176C | 0.0181
32 | C82G A120G A145G C150U C169A U176G | 0.00521
33 | C82G A120G A145G C150U C169G | 0.04
34 | C82G A120G A145G C150U C169G U176A | 0.0169
35 | C82G A120G A145G C150U C169G U176C | 0.0245
36 | C82G A120G A145G C150U C169G U176G | 0.00428
37 | C82G A120G A145G C150U C169U | 0.0236
38 | C82G A120G A145G C150U C169U U176A | 0.0213
39 | C82G A120G A145G C150U C169U U176C | 0.0187
40 | C82G A120G A145G C150U C169U U176G | 0.00473
41 | C82G A120G A145G C150U U176A | 0.0107
42 | C82G A120G A145G C150U U176C | 0.0211

Row | Variant | reverse-splicing fitness
43 | C82G A120G A145G C150U U176G | 0.0072
44 | C82G A120G A145G C169A | 0.0319
45 | C82G A120G A145G C169A U176A | 0.0185
46 | C82G A120G A145G C169A U176C | 0.0269
47 | C82G A120G A145G C169A U176G | 0.00439
48 | C82G A120G A145G C169G | 0.0507
49 | C82G A120G A145G C169G U176A | 0.0221
50 | C82G A120G A145G C169G U176C | 0.0345
51 | C82G A120G A145G C169G U176G | 0.00379
52 | C82G A120G A145G C169U | 0.0249
53 | C82G A120G A145G C169U U176A | 0.0208
54 | C82G A120G A145G C169U U176C | 0.0199
55 | C82G A120G A145G C169U U176G | 0.00391
56 | C82G A120G A145G U176A | 0.0129
57 | C82G A120G A145G U176C | 0.0211
58 | C82G A120G A145G U176G | 0.00636
59 | C82G A120G A145U | 0.0294
60 | C82G A120G A145U C150A | 0.00866
61 | C82G A120G A145U C150A C169A | 0.00985
62 | C82G A120G A145U C150A C169A U176A | 0.014
63 | C82G A120G A145U C150A C169A U176C | 0.0141

Row | Variant | reverse-splicing fitness
64 | C82G A120G A145U C150A C169A U176G | 0.00465
65 | C82G A120G A145U C150A C169G | 0.00926
66 | C82G A120G A145U C150A C169G U176A | 0.0132
67 | C82G A120G A145U C150A C169G U176C | 0.0157
68 | C82G A120G A145U C150A C169G U176G | 0.00401
69 | C82G A120G A145U C150A C169U | 0.00806
70 | C82G A120G A145U C150A C169U U176A | 0.02
71 | C82G A120G A145U C150A C169U U176C | 0.0145
72 | C82G A120G A145U C150A C169U U176G | 0.00418
73 | C82G A120G A145U C150A U176A | 0.0105
74 | C82G A120G A145U C150A U176C | 0.0139
75 | C82G A120G A145U C150A U176G | 0.00553
76 | C82G A120G A145U C150G | 0.00803
77 | C82G A120G A145U C150G C169A | 0.0112
78 | C82G A120G A145U C150G C169A U176A | 0.0112
79 | C82G A120G A145U C150G C169A U176C | 0.0121
80 | C82G A120G A145U C150G C169A U176G | 0.00431
81 | C82G A120G A145U C150G C169G | 0.0107
82 | C82G A120G A145U C150G C169G U176A | 0.00742
83 | C82G A120G A145U C150G C169G U176C | 0.00564
